Read-outs that look alike come from different tables or passages of the source.
Key:
[1] = molecular target: T1, human CD3ε on the cell surface (Jurkat cells, Th1 cells) (UniProt P07766 23-207); assay: FACS Jurkat
[2] = molecular target: T1, human CD3ε on the cell surface (Jurkat …); assay: FACS Jurkat; remark: listed apart in the source
CD3ε/δ heterodimer = assay: sensorgram
Jurkat [3] = molecular target: T2, Jurkat (UniProt P07766 23-207); assay: FACS Jurkat
Jurkat [4] = molecular target: T2, Jurkat; assay: FACS Jurkat; remark: listed apart in the source

Binder	EC50 [1] [nM]	EC50 [2] [nM]	koff (CD3ε/δ heterodimer) [s⁻¹]	EC50 (Jurkat [3]) [nM]	EC50 (Jurkat [4]) [nM]
08B12 (antibody, V domains shown) VH: EVQVVESGGGLVKPGGSLRLSCVASGFTFKKYNMNWVRQAPGKGLEWVSSISSSSTYIYYADSVKGRFTISRDNAKNSLNLQMNSLRAEDTAVYYCAGGGYFDYWGQGTLVTVSS	0.68	0.68	–	–	–
13D02 (antibody, V domains shown) VH: EVQLVESGGGLVKPGGSLRLSCAASGFTFSRFNMNWVRQTPGKGLEWVSSISSRSSYIYYADSVKGRFTISRDNAKKSLYLQMNSLRAEDTAVYYCAGGGYFDYWGQGTLVTVSS VL: not shown	0.59	0.59	–	–	–
11A10 (antibody, V domains shown) VH: EVQLVESGRGLVQPGGSLRLSCAASGFTFSSYWMSWVRQAPGKGLEWVANIKEDGSEKYYVDSVKGRFTISRDNAKNSLYLQMNSLRAEDTAVYYCARERREGYFDYWGQGTLVTVSS VL: not shown	36	36	–	–	–
12C08 (antibody, V domains shown) VH: EEQLVESGGGLVQPGGSLRFSCEVSGFTFRSYWMSWVRQAPGKGLEWVANIKEDGSEKYYVDSVKGRFTISRDNAKNSLYLQMNSLRAEDTAVYYCARERREGYFDQWGQGTLVTVSS VL: DIQMTQSPSTLSAFVGDRVTITCRASQSIGSWLAWYQQKPGKAPDLLIYKASSLESGVPSRFSGSGSGTEFTLTISSLQPDDFATYYCQQYKSYSWTFGQGTKVEIK	–	–	0.000334	–	–
11B11 (antibody, V domains shown) VH: EVQLVESGGGLVQPGGSLRLSCAASGFTFSSYWMTWVRQAPGKGLEWVANIKEDGSEKYYVDSVKGRFTISRDNAKNSLYVQMNSLRAEDTAIYYCARERREGYFDYWGQGTLVTVSS VL: DIQMTQSPSILSASVGDRATITCRASQRISTWLAWFQQKPGKAPKLLIYKASSLESGVPSRFSGSGSGTEFTLTISSLQPDDFATYYCQQYKSYSWTFGQGTKVEIK	48	48	–	–	–
13E03 antibody (antibody, V domains shown) VH: EIQLVESGGGLVQPGGSLRLSCAASGFTFSSYWMSWVRQTPGKGLEWVANIKEDGSEKYHVDSVKGRYTISRDNAKNSLYLQMSSLRADDTAVYYCARERREGYFDYWGQGTVVTASS VL: DIQMTQSPSTLSASVGDRVTITCRASQSIGRWLAWYQQKPGKAPDLLIYKASSLESGVPSRFSGGGSGTEFTLTISSLQPDDFATYYCQQYKSYSWTFGQGTKVEVK	35	35	–	–	–
06G07 A04 (antibody, V domains shown) VH: EVQLVESGGGLVQPGGSLRLSCAASGFTFSSFWMSWVRQAPGKGLEWVANIKEDGSEKYYVDSVKGRFTISRDNAKNSLFLQMNSLRAEDTAVYYCARERRTGYFDYWGQGTLVTVSS VL: DIQMTQSSSTLSASVGDRVTITCRASQSIGSWLAWFQQKPGKAPKLLIYKASSLESGVPSRFSGSGSGTEFTLTISSLQPDDFAIYYCQQYKSYSWTFGQGTKVEIK	27	27	–	–	–
07B09 (antibody, V domains shown) VH: EVQLVESGGGLVQPGGSLRLSCAASGFTFSSYWMTWVRQAPGKGLEWVANMRKDGSEKYYVDSVKGRFTISRDNAKNSLYLHMNSLRAEDTAVYYCARERSTGYFDYWGQGTLVIVSS VL: DIQMTQSPSTLSASVGDRVTITCRASQRISTWLAWYQQKAGKAPKLLIYKASSLESGVPSRFSGSGSGTEFTLTIRSLEPDDFATYYCQQYISYTWTFGQGTKVEIK	25	25	–	–	–
12C08 antibody (antibody, V domains shown) VH: EEQLVESGGGLVQPGGSLRFSCEVSGFTFRSYWMSWVRQAPGKGLEWVANIKEDGSEKYYVDSVKGRFTISRDNAKNSLYLQMNSLRAEDTAVYYCARERREGYFDQWGQGTLVTVSS VL: DIQMTQSPSTLSAFVGDRVTITCRASQSIGSWLAWYQQKPGKAPDLLIYKASSLESGVPSRFSGSGSGTEFTLTISSLQPDDFATYYCQQYKSYSWTFGQGTKVEIK	34	34	–	–	–
13E03 (antibody, V domains shown) VH: EIQLVESGGGLVQPGGSLRLSCAASGFTFSSYWMSWVRQTPGKGLEWVANIKEDGSEKYHVDSVKGRYTISRDNAKNSLYLQMSSLRADDTAVYYCARERREGYFDYWGQGTVVTASS VL: DIQMTQSPSTLSASVGDRVTITCRASQSIGRWLAWYQQKPGKAPDLLIYKASSLESGVPSRFSGGGSGTEFTLTISSLQPDDFATYYCQQYKSYSWTFGQGTKVEVK	–	–	0.00198	–	–
08G12 (antibody, V domains shown) VH: EVQLVESGGGLVQSGGSLRLSCAASGFTFSRFWMTWVRQAPGKGLEWVANIKEDGSEKYYVDSVKGRFTISRDNTKNSLYLQMNSLRAEDTAVYYCARERREGYFDYWGQGTLVTVSS VL: not shown	20	20	–	–	–
01B08 B01 (antibody, V domains shown) VH: QVQLVQSGAEVKKPGASVKVSCKAAGYTFTGYYMHWVRQAPGQGLEWMGWINPYRSGTNFAQKFQDRVTMTRDTSISTAYMELSSLSSDDTAIYYCARGAGTTFYNAFDIWGQGTMVTVSS VL: DIQMTQSPSAMSASVGDRVTITCRASQGINNYLAWFQQKPGKVPKRLIYAASSLQSGVPSRFSGSGSGTEFTLTISSLQPEDFATYYCLQHNRYPFTFGPGTKVDIK	23	23	–	–	–
OKT3 (antibody, V domains shown) VH: QVQLVQSGGGVVQPGRSLRLSCKASGYTFTRYTMHWVRQAPGKGLEWIGYINPSRGYTNYNQKFKDRFTISRDNSKNTAFLQMDSLRPEDTGVYFCARYYDDHYCLDYWGQGTPVTVSS VL: DIQMTQSPSSLSASVGDRVTITCSASSSVSYMNWYQQTPGKAPKRWIYDTSKLASGVPSRFSGSGSGTDYTFTISSLQPEDIATYYCQQWSSNPFTFGQGTKLQITR	–	–	–	0.55	0.55
01F05 C01 (antibody, V domains shown) VH: QVQLVQSGAEVKKPGASVKVSCKASGYTFTAYYIHWVRQAPGQGLEWMGWINPNSGGTNYAQMFQGRVTMTRDTSISAAYMELSRLSSDDTAVYYCTRGTPRYNWKSYNYGMDVWGQGTTVTVSS VL: not shown	1.3	1.3	–	–	–

Reference: patent US20260146089A1 (published 2026)
